In the experiment the target is T1, RASSF2 (expression construct precipitated with anti-Flag) (UniProt P50749 1-326).
T1 construct: RASSF2; The methods describe no Flag-tagged construct; That RASSF2 carried the Flag tag is surmised, because C1QBP is the GFP-tagged partner and the blot used anti-Flag and anti-GFP; source: HEK-293T, transfected, in lysate
T1 sequence (looked up): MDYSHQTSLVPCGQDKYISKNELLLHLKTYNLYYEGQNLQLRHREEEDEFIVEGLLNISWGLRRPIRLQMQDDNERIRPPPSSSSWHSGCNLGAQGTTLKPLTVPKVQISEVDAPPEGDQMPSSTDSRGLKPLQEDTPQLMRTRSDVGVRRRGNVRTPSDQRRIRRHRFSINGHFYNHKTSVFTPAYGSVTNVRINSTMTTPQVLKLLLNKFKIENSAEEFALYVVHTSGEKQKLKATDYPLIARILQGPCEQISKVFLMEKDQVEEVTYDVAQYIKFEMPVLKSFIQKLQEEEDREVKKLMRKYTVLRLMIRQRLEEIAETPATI
Put plainly: co-IP; HEK-293T co-transfected with RASSF2, C1QBP and with or without activated K-Ras for 24 hours; lysates immunoprecipitated with anti-Flag, blotted with anti-Flag and anti-GFP. As to conditions: partners not purified.

B1: GFP-C1QBP (natural protein, UniProt Q07021 74-282, looked up)
chain: LHTDGDKAFVDFLSDEIKEERKIQKHKTLPKMSGGWELELNGTEAKLVRKVAGEKITVTFNINNSIPPTFDGEEEPSQGQKVEEQEPELTSTPNFVVEVIKNDDGKKALVLDCHYPEDEVGQEDEAESDIFSIREVSFQSTGESEWKDTNYTLNTDSLDWALYDHLMDFLADRGVDNTFADELVELSTALEHQEYITFLEDLKSFVKSQ
notes: C1QBP; cDNA from GeneCopoeia, PCR amplified and cloned into pEGFP-C1; source: HEK-293T, transfected, in lysate
In the case of B1, the “fold change of the co-precipitate with activated Ras against without” value is ~2 fold.

The values above are taken from article PMC4810121, “Proteomics Analysis Reveals Novel RASSF2 Interaction Partners” (Cancers, 2016).
